Experiments:
[1] = molecular target: mPOLγA A449T;mPOLγB (Mus musculus;Mus musculus, UniProt P54099;Q9QZM2 26-1218;17-459, A450T|); assay: EMSA
[2] = molecular target: T1, mPOLγA A449T (Mus musculus, UniProt P54099 26-1218, A450T); assay: EMSA
T1 sequence: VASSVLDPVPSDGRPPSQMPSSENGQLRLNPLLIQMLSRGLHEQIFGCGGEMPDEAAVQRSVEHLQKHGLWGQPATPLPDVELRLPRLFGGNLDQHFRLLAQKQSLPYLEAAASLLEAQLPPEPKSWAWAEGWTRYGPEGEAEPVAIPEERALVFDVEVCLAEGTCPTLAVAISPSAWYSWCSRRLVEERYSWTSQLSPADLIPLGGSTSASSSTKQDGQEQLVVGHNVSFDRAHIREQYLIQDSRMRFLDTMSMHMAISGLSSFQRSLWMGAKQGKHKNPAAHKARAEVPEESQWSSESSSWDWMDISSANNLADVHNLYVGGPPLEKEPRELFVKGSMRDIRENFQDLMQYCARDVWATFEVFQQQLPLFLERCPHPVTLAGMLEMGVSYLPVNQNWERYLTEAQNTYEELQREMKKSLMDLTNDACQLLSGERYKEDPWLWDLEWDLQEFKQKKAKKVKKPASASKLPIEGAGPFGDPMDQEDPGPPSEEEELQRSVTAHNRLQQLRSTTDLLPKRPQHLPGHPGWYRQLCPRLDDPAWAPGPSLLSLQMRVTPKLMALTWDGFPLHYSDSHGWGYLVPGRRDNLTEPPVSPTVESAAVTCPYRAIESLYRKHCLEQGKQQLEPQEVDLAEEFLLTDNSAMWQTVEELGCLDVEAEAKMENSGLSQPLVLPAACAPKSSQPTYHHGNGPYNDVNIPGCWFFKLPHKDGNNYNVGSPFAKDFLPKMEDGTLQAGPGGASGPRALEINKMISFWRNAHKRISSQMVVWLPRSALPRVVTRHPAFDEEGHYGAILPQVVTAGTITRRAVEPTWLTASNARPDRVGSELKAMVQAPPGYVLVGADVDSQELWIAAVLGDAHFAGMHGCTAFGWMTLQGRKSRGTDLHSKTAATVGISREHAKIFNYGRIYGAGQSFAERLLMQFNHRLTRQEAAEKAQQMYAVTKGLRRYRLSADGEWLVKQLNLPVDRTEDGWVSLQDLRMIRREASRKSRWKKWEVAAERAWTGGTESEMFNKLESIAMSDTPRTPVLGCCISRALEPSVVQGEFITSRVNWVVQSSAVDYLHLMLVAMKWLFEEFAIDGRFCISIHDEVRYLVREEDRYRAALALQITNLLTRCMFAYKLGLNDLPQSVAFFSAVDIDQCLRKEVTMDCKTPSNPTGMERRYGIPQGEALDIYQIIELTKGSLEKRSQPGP

mPOLγA A449T;mPOLγB, sequence (Q9QZM2 17-459, stated change not applied, one chain of several): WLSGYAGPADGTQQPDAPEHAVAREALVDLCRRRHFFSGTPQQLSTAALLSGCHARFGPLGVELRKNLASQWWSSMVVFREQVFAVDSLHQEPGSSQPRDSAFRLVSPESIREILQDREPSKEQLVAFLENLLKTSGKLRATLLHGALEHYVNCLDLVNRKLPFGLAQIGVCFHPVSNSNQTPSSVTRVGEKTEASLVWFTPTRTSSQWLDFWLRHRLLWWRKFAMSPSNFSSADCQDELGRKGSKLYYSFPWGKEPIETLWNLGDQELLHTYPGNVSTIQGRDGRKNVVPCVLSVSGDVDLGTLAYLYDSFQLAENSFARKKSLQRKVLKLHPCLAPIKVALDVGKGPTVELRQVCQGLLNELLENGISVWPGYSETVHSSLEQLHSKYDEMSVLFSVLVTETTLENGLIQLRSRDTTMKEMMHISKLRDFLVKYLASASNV

B1: 36/21-nt primer-template (mixed)
DNA 1: TTTTTTTTTTATCCGGGCTCCTCTAGACTCGACCGC
DNA 2: GCGGTCGAGTCTAGAGGAGCC
With B1 the binding signal [1] was 1.75 fold lower binding than WT holoenzyme and the binding signal [2] was ~3.4 fold lower binding than WT.
